From the supplement of paper PMC12338614
± gives the uncertainty stated by the source.

B1: library; numbered along this chain (parent)
chain: MEVVDPQQLGMFTEGELMSVGMDTFIHRIDSTEVIYQPRRKRAKLIGKYLMGDLLGEGSYGKVKEVLDSETLCRRAVKILKKKKLRRIPNGEANVKKEIQLLRRLRHKNVIQLVDVLYNEEKQKMYMVMEYCVCGMQEMLDSVPEKRFPVCQAHGYFCQLIDGLEYLHSQGIVHKDIKPGNLLLTTGGTLKISDLGVAEALHPFAADDTCRTSQGSPAFQPPEIANGLDTFSGFKVDIWSAGVTLYNITTGLYPFEGDNIYKLFENIGKGSYAIPGDCGPPLSDLLKGMLEYEPAKRFSIRQIRQHSWFRKKHPPAEAPVPIPPSPDTKDRWRSMTVVPYLEDLHGADEDEDLFDIEDDIIYTQDFTVPGQVPEEEASHNGQRRGLPKAVCMNGTEAAQLSTKSRAEGRAPNPARKACSASSKIRRLSACKQQ

Variants of: B1
Assay: STK11 functional score (HeLa growth suppression), rescaled enrichment; synonymous median = 1, nonsense median = 0 (normalised score)
Conditions: with HeLa; variant type: missense
How it was run: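 Codon-randomised (POPCode) libraries of codon-optimised STK11 were integrated by Bxb1 at an AAVS1 landing pad in HeLa, in three regions each transfected three times. Integrants (BFP-negative, mCherry-positive) were FACS-sorted 4–5 days after electroporation and grown about two weeks; tiled gDNA amplicons were sequenced on NextSeq (~2 million reads per tile). The functional score is the wild-type-corrected post/pre-selection log ratio, rescaled to synonymous and nonsense medians, merged over codons and replicate transfections, with bootstrapped error.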
For P314D, the STK11 functional score was 1.5 ± 0.17.
With P314I the STK11 functional score was 1.5 ± 0.15.
P314L gave an STK11 functional score of 1.21 ± 0.15.
V390Q showed an STK11 functional score of 1.63 ± 0.28.
In the case of Q382Y, the STK11 functional score is reported as 1.28 ± 0.22.
With Q382C the STK11 functional score was 1.15 ± 0.19.
D258W was tested, and the STK11 functional score was 1.5 ± 0.51.
In the case of K62Q, the STK11 functional score is reported as 1.56 ± 0.21.
With K62C the STK11 functional score was 1.4 ± 0.35.
K62T was tested, and the STK11 functional score was 1.7 ± 0.36.
F366C gave an STK11 functional score of 1.09 ± 0.4.
E138D showed an STK11 functional score of 1.1 ± 0.21.
E138V showed an STK11 functional score of 0.367 ± 0.2.
With M289V the STK11 functional score was 0.966 ± 0.44.
M289D gave an STK11 functional score of 0.312 ± 0.18.
R40I was tested, and the STK11 functional score was 1.63 ± 0.21.
Work on L54I yielded an STK11 functional score of 0.71 ± 0.19.
L54H showed an STK11 functional score of 1.15 ± 0.19.
In the case of R301F, the STK11 functional score is reported as 1.55 ± 0.22.
P280E showed an STK11 functional score of 1.69 ± 0.21.
Y340L was tested, and the STK11 functional score was 1.59 ± 0.16.
Variant Y340C has an STK11 functional score of 1.63 ± 0.13.
Y340F showed an STK11 functional score of 1.04 ± 0.49.
For E375Y, the STK11 functional score was 1.52 ± 0.24.
E375A gave an STK11 functional score of 1.13 ± 0.25.
With H306V the STK11 functional score was 0.418 ± 0.39.
For I356H, the STK11 functional score was 1.51 ± 0.22.
Variant I356F has an STK11 functional score of 1.15 ± 0.18.
For I356S, the STK11 functional score was 0.889 ± 0.32.
In the case of I356M, the STK11 functional score is reported as 1.21 ± 0.53.
Variant P275E has an STK11 functional score of 0.52 ± 0.15.
G257V was tested, and the STK11 functional score was 1.23 ± 0.17.
With G257A the STK11 functional score was 1.25 ± 0.6.
L286D showed an STK11 functional score of -0.166 ± 0.12.
Work on L286E yielded an STK11 functional score of 0.235 ± 0.36.
S428C was tested, and the STK11 functional score was 1.4 ± 0.17.
Variant R211E has an STK11 functional score of 1.53 ± 0.29.
L341T showed an STK11 functional score of 1.29 ± 0.32.
P149I was tested, and the STK11 functional score was 0.249 ± 0.1.
For P149G, the STK11 functional score was 0.926 ± 0.23.
Variant L17S has an STK11 functional score of 1.35 ± 0.55.
G58S gave an STK11 functional score of 0.988 ± 0.36.
T32K gave an STK11 functional score of 0.829 ± 0.21.
Work on Y156C yielded an STK11 functional score of 0.324 ± 0.12.
Variant S404F has an STK11 functional score of 0.794 ± 0.61.
E293N was tested, and the STK11 functional score was 1.55 ± 0.23.
Work on E407A yielded an STK11 functional score of 1.52 ± 0.23.
With E407D the STK11 functional score was 1.56 ± 0.25.
Work on N393Y yielded an STK11 functional score of 1.51 ± 0.15.
For D277A, the STK11 functional score was 0.843 ± 0.41.
In the case of D277M, the STK11 functional score is reported as 0.115 ± 0.11.
R74P gave an STK11 functional score of 1.27 ± 0.19.
Q399A gave an STK11 functional score of 1.11 ± 0.58.
With Q399I the STK11 functional score was 1.05 ± 0.34.
Q399F gave an STK11 functional score of 1.27 ± 0.39.
Q399D gave an STK11 functional score of 1.39 ± 0.34.
For T212P, the STK11 functional score was 0.926 ± 0.38.
T212Y gave an STK11 functional score of 1.38 ± 0.12.
For E165T, the STK11 functional score was 0.129 ± 0.15.
For E145G, the STK11 functional score was 0.981 ± 0.099.
For G10P, the STK11 functional score was 1.18 ± 0.49.
In the case of K262M, the STK11 functional score is reported as 1.17 ± 0.86.
K262N showed an STK11 functional score of 1.33 ± 0.53.
For N90G, the STK11 functional score was 1.63 ± 0.19.
T363R showed an STK11 functional score of 1.14 ± 0.24.
With T363M the STK11 functional score was 1.59 ± 0.17.
Work on T363N yielded an STK11 functional score of 1.03 ± 0.33.
T209S showed an STK11 functional score of 0.82 ± 0.11.
Variant I300G has an STK11 functional score of 0.368 ± 0.12.
G288M gave an STK11 functional score of 1.23 ± 0.13.
E357S gave an STK11 functional score of 1.52 ± 0.15.
For E357C, the STK11 functional score was 1.36 ± 0.37.
P281I gave an STK11 functional score of 1.46 ± 0.18.
P281F was tested, and the STK11 functional score was 1.23 ± 0.2.
In the case of G52F, the STK11 functional score is reported as 1.63 ± 0.18.
With L113E the STK11 functional score was 1.13 ± 0.53.
Variant Q220V has an STK11 functional score of 0.924 ± 0.23.
In the case of T244N, the STK11 functional score is reported as 0.0991 ± 0.1.
For T244P, the STK11 functional score was -0.17 ± 0.1.
P254S showed an STK11 functional score of 0.653 ± 0.17.
S299N gave an STK11 functional score of 1.59 ± 0.16.
M127R showed an STK11 functional score of 0.302 ± 0.094.
A200H showed an STK11 functional score of 1.49 ± 0.32.
A200C showed an STK11 functional score of 1.13 ± 0.096.
For R426A, the STK11 functional score was 0.525 ± 0.27.
For P339A, the STK11 functional score was 1 ± 0.56.
With P339D the STK11 functional score was 1.55 ± 0.23.
N412H was tested, and the STK11 functional score was 1.1 ± 0.46.
N412R was tested, and the STK11 functional score was 1.57 ± 0.2.
N412T was tested, and the STK11 functional score was 1.09 ± 0.53.
With H345Y the STK11 functional score was 1.12 ± 0.3.
E130I was tested, and the STK11 functional score was 0.376 ± 0.28.
D162W was tested, and the STK11 functional score was 1.6 ± 0.22.
Variant D343M has an STK11 functional score of 1.57 ± 0.2.
Variant K83S has an STK11 functional score of 1.7 ± 0.19.
I238N gave an STK11 functional score of 1.22 ± 0.86.
For E291R, the STK11 functional score was 1.53 ± 0.18.
With E291I the STK11 functional score was 1.22 ± 0.56.
With H379R the STK11 functional score was 1.36 ± 0.18.
E351V was tested, and the STK11 functional score was 1.36 ± 0.18.
With E351Y the STK11 functional score was 1.23 ± 0.39.
For I322H, the STK11 functional score was 0.839 ± 0.66.
K82I was tested, and the STK11 functional score was 1.3 ± 0.54.
I424Y gave an STK11 functional score of 1.12 ± 0.26.
S240M showed an STK11 functional score of 0.927 ± 0.66.
Variant C210A has an STK11 functional score of 1.33 ± 0.73.
With C210D the STK11 functional score was 1.37 ± 0.26.
In the case of N247M, the STK11 functional score is reported as 0.7 ± 0.58.
N247S gave an STK11 functional score of 1.3 ± 0.2.
For N247P, the STK11 functional score was -0.0537 ± 0.096.
With P413M the STK11 functional score was 1.53 ± 0.17.
For A414G, the STK11 functional score was 1.21 ± 0.26.
In the case of I35F, the STK11 functional score is reported as 0.949 ± 0.091.
G279W gave an STK11 functional score of 1.06 ± 0.077.
V110D gave an STK11 functional score of 0.338 ± 0.084.
Work on Q214N yielded an STK11 functional score of 1.27 ± 0.31.
For Q214W, the STK11 functional score was 0.779 ± 0.19.
V133T was tested, and the STK11 functional score was 1 ± 0.41.
For V133R, the STK11 functional score was 0.519 ± 0.12.
Work on V133I yielded an STK11 functional score of 1.24 ± 0.26.
V133C showed an STK11 functional score of 1.35 ± 0.33.
K311R was tested, and the STK11 functional score was 1.43 ± 0.24.
In the case of K311H, the STK11 functional score is reported as 0.501 ± 0.66.
For E317C, the STK11 functional score was 1.49 ± 0.17.
With Y261G the STK11 functional score was 0.901 ± 0.2.
E121Y gave an STK11 functional score of 1.36 ± 0.37.
For T250I, the STK11 functional score was 1.35 ± 0.2.
S19E showed an STK11 functional score of 1.45 ± 0.34.
With S19L the STK11 functional score was 0.775 ± 0.094.
T402K gave an STK11 functional score of 1.3 ± 0.1.
Variant L252I has an STK11 functional score of 1.54 ± 0.12.
R415M was tested, and the STK11 functional score was 1.4 ± 0.16.
D352W gave an STK11 functional score of 0.86 ± 0.64.
Work on D352N yielded an STK11 functional score of 1.09 ± 0.8.
For D352K, the STK11 functional score was 1.55 ± 0.13.
In the case of D352R, the STK11 functional score is reported as 1.61 ± 0.15.
Work on D207Y yielded an STK11 functional score of 0.314 ± 0.099.
Variant P321V has an STK11 functional score of 1.41 ± 0.28.
A295I gave an STK11 functional score of 1.35 ± 0.48.
With R147S the STK11 functional score was 0.855 ± 0.32.
For R147M, the STK11 functional score was 1.06 ± 0.58.
With K329L the STK11 functional score was 1.42 ± 0.25.
Work on I224F yielded an STK11 functional score of 1.09 ± 0.23.
For V368L, the STK11 functional score was 1.35 ± 0.23.
For Q302G, the STK11 functional score was 1.14 ± 0.51.
With Q302W the STK11 functional score was 0.804 ± 0.68.
S142R was tested, and the STK11 functional score was 0.875 ± 0.4.
L183S showed an STK11 functional score of 0.646 ± 0.4.
Y272W showed an STK11 functional score of 1.01 ± 0.2.
Variant Y272T has an STK11 functional score of 1.44 ± 0.45.
In the case of Y272L, the STK11 functional score is reported as 0.641 ± 0.46.
S31V gave an STK11 functional score of 1.58 ± 0.21.
In the case of S31Q, the STK11 functional score is reported as 1.37 ± 0.39.
For S31D, the STK11 functional score was 1.28 ± 0.37.
S31F gave an STK11 functional score of 0.829 ± 0.12.
Work on C132Q yielded an STK11 functional score of 1.58 ± 0.14.
E265M showed an STK11 functional score of 1.25 ± 0.16.
Variant E265Q has an STK11 functional score of 0.752 ± 0.43.
H202L gave an STK11 functional score of 0.766 ± 0.12.
H202F showed an STK11 functional score of 0.754 ± 0.15.
L190M gave an STK11 functional score of 1.21 ± 0.18.
With K96F the STK11 functional score was 0.801 ± 0.17.
A347L gave an STK11 functional score of 1.46 ± 0.16.
Variant P89V has an STK11 functional score of 0.683 ± 0.088.
Work on P89L yielded an STK11 functional score of 0.532 ± 0.24.
Variant P89D has an STK11 functional score of 0.0497 ± 0.083.
Work on K423Y yielded an STK11 functional score of 1.41 ± 0.29.
